Data from US20230151091A1 (NEW YORK UNIVERSITY, published 2023).

T1: mFz: Fz domain and C-terminal flanking sequence of mouse MuSK (D307 to T494) with C-terminal Avi- and … (mouse, UniProt Q61006 307-494, limits assumed, biotinylated in vitro using the BirA enzyme)
T1 construct: also called mouse Fz; not shown: Avi- and His6-tags
T1 sequence (looked up): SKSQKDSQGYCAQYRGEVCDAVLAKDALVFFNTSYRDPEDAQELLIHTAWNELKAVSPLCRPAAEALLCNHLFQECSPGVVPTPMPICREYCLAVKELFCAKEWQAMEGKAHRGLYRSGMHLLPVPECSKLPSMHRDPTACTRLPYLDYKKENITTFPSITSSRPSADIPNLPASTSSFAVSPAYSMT

T2: mECD: full-length extracellular region of mouse MuSK (E22 to T494) with C-terminal Avi- and His6-tags (mouse, UniProt Q61006 22-494, biotinylated in vitro using the BirA enzyme)
T2 construct: range 22-494; also called mouse ECD; not shown: Avi- and His6-tags
T2 sequence (looked up): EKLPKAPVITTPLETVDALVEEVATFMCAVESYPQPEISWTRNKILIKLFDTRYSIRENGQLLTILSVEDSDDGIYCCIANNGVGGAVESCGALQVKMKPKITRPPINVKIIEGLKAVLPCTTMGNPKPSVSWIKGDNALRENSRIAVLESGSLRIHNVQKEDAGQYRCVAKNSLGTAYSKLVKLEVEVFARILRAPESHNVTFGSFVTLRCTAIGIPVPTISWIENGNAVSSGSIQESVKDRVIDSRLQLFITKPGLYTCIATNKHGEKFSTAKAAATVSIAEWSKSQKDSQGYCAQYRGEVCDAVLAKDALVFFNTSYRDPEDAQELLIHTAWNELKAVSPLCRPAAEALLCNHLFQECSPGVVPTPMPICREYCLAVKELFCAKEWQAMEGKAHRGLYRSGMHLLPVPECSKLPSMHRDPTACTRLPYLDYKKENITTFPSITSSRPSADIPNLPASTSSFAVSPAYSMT

T3: hFz: Fz domain and C-terminal flanking sequence of human MuSK (K314-T495) with C-terminal Avi- and His6-tags (human, UniProt O15146 314-495, biotinylated in vitro using the BirA enzyme)
T3 construct: also called human Fz; not shown: Avi- and His6-tags
T3 sequence: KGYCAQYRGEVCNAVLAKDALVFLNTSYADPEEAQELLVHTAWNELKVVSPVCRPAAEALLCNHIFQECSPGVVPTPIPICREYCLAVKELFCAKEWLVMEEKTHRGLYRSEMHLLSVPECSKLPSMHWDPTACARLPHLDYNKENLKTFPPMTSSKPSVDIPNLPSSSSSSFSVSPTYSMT

T4: hECD: full-length extracellular region of human MuSK (E22 to T495) with C-terminal Avi- and His6-tags (human, UniProt O15146 22-495, biotinylated in vitro using the BirA enzyme)
T4 construct: also called human ECD; not shown: Avi- and His6-tags
T4 sequence: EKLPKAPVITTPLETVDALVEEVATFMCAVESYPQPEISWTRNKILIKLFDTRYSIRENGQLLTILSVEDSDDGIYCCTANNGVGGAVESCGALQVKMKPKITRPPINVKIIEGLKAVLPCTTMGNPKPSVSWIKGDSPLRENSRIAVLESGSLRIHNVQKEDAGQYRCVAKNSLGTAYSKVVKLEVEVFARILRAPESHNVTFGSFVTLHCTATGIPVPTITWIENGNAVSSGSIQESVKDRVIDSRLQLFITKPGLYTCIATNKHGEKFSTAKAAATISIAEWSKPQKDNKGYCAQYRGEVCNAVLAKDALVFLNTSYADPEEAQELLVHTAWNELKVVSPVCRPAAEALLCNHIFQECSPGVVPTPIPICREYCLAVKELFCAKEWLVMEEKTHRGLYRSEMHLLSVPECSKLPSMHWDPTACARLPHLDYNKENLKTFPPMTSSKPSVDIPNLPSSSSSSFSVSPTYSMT

T5: mouse MuSK (mouse, UniProt Q61006 22-494, limits assumed)
T5 construct: Coated on ELISA plates or on the Biacore chip; also called full length mouse MuSK; mouse MuSK (in house produced in HEK293 cells)
T5 sequence (looked up): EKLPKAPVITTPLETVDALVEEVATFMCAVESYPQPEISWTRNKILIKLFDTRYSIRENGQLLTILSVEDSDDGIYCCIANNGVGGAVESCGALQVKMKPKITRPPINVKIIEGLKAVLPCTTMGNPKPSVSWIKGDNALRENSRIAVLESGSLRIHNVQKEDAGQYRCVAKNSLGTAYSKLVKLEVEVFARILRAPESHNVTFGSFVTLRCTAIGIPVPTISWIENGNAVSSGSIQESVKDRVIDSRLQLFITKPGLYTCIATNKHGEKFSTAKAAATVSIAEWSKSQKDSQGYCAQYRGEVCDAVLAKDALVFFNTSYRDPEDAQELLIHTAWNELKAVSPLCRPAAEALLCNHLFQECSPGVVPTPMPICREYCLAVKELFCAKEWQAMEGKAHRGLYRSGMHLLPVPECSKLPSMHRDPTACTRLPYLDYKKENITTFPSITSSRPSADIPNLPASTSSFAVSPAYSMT

T6: mouse MuSK, endogenous (C2C12 myotubes; neuromuscular synapses of mice) (mouse, UniProt Q61006 22-868)
T6 sequence (looked up): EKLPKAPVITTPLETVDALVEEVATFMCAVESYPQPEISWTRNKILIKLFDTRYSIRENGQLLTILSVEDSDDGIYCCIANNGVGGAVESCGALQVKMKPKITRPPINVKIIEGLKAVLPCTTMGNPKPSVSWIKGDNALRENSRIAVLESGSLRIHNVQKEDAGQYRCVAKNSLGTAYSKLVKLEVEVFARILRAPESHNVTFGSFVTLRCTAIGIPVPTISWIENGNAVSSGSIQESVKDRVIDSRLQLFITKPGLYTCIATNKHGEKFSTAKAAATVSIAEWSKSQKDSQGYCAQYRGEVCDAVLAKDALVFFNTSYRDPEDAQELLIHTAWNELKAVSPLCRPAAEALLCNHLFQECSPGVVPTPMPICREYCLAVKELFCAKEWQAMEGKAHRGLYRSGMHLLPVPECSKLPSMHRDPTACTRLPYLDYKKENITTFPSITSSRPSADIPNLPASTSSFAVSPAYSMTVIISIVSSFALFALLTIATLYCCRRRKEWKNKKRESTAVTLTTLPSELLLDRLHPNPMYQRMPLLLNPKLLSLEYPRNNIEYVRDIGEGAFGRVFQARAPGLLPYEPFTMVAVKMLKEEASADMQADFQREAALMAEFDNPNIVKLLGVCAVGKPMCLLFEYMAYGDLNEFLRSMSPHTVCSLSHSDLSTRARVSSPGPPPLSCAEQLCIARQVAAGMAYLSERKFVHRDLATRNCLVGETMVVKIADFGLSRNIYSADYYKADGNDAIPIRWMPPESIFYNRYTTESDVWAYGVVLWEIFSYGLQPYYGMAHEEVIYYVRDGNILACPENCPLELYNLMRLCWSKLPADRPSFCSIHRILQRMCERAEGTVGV

T7: human MuSK (human, UniProt O15146 24-495)
T7 construct: Recombinant protein coated on ELISA plates (R&D Systems cat. 10189-MK) or on the Biacore chip; also called human muscle-specific tyrosine protein kinase; full length human MuSK
T7 sequence: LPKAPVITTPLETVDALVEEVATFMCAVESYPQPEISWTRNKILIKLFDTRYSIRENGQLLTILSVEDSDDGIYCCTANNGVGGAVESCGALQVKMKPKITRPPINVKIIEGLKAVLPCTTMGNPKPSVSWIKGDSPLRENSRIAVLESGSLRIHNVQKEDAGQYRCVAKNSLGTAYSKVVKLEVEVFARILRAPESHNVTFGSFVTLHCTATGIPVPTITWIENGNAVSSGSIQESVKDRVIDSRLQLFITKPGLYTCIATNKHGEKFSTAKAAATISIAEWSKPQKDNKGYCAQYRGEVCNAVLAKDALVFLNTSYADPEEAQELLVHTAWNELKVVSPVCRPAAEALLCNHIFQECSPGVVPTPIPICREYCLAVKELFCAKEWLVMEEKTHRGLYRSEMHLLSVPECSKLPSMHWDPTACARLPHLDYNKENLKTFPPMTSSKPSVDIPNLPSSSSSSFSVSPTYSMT


Assays:
[1] = biological target: T1, mFz: Fz domain and C-terminal flanking …; assay: bead-binding titration, Fab format: antigen immobilized on streptavidin beads, MFI by flow cytometry, curve is the 1:1 fit
[2] = biological target: T2, mECD: full-length extracellular region …; assay: as above
[3] = biological target: T3, hFz: Fz domain and C-terminal flanking …; assay: as above
[4] = biological target: T4, hECD: full-length extracellular region …; assay: as above
[5] = biological target: T1, mFz: Fz domain and C-terminal flanking …; assay: bead-binding assay, Fab format: biotinylated antigen on streptavidin beads, flow cytometry, 1:1 fit; average ± s.d., n=3
[6] = biological target: T2, mECD: full-length extracellular region …; assay: as above
[7] = biological target: T3, hFz: Fz domain and C-terminal flanking …; assay: as above
[8] = biological target: T4, hECD: full-length extracellular region …; assay: as above
[9] = biological target: T5, mouse MuSK; assay: Biacore, mAb
Source text: (§1) For affinity determination, a CMS chip was coated with either human or mouse MuSK (200RU) and a dilution series of the antibodies (mAbs and Fabs) was applied in order to be able to calculate the affinity.

[10] = biological target: T6, mouse MuSK, endogenous (C2C12 myotubes; …); assay: cell-based or functional assay
[11] = biological target: T5, mouse MuSK; assay: Biacore, MuSK on chip (200RU), mAb dilution series
Source text: as §1

[12] = biological target: T7, human MuSK; assay: Biacore, MuSK on chip (200RU), mAb dilution series
Source text: as §1

[13] = biological target: T5, mouse MuSK; assay: Biacore, Fab
Source text: as §1

[14] = biological target: T5, mouse MuSK; assay: Biacore, MuSK on chip (200RU), Fab dilution series
Source text: as §1

[15] = biological target: T7, human MuSK; assay: Biacore, MuSK on chip (200RU), Fab dilution series
Source text: as §1

Binder	fold difference in affinity, human versus mouse MuSK [9] [fold]	% Phosphorylation Induced in C2C12 Mouse Assay, Assay 1 [10] [% versus agrin]	% Phosphorylation Induced in C2C12 Mouse Assay, Assay 2 [10] [% versus agrin]	% Phosphorylation Induced in C2C12 Mouse Assay, Assay 3 [10] [% versus agrin]	% Phosphorylation Induced in C2C12 Mouse Assay, Average [10] [% versus agrin]	Kd [11] [nM]	Kd [12] [pM]	other results
X6 Fab (Fab, V domains shown, also called Fab Clone X6) VH: EVQLVESGGGLVQPGGSLRLSCAASGFTFSSSSIHWVRQAPGKGLEWVASISSYSGYTYYADSVKGRFTISADTSKNTAYLQMNSLRAEDTAVYYCARTYGSYYVSSYTGMDYWGQGTLVTVSS VL: DIQMTQSPSSLSASVGDRVTITCRASQSVSSAVAWYQQKPGKAPKLLIYSASSLYSGVPSRFSGSRSGTDFTLTISSLQPEDFATYYCQQSSSSLITFGQGTKVEIK								EC50 (read off the curve) [1]: ~0.4 nM; EC50 (read off the curve) [2]: ~0.6 nM; EC50 (read off the curve) [3]: ~1 nM; EC50 (read off the curve) [4]: ~1 nM; Kd [5]: 0.42 nM; Kd [6]: 0.59 nM; Kd [7]: 0.9 nM; Kd [8]: 1.47 nM
30E1 (antibody, V domains shown, human IgG1 with the LALA mutations (L234A, L235A); produced in HEK293 cells; also called 30E1 mAb) VH: QVQVQESGPGLVKPSQTLSLTCTVSGGSITARYYSWSWIRQPPGKGLEWMGVIAYDGSTYYSPSLKSRTSISRDTSKNQFSLHLSSVTPDDTAVYYCARGSSRVAAAFDSWGQGTQVTVSS VL: SYELTQSPSVSVALRRTAKITCGGDNIGSKNTQWYQQKPGQAPVLVIYADSRRPSGIPERFSGSNSGNTATLTISGAQAEDEADYYCHVWDSSTNAWFGGGTHLTVL	10	66	82	50	66	0.153	11	
30E1 Fab (Fab, V domains shown, Fab format) VH: QVQVQESGPGLVKPSQTLSLTCTVSGGSITARYYSWSWIRQPPGKGLEWMGVIAYDGSTYYSPSLKSRTSISRDTSKNQFSLHLSSVTPDDTAVYYCARGSSRVAAAFDSWGQGTQVTVSS VL: SYELTQSPSVSVALRRTAKITCGGDNIGSKNTQWYQQKPGQAPVLVIYADSRRPSGIPERFSGSNSGNTATLTISGAQAEDEADYYCHVWDSSTNAWFGGGTHLTVL								fold difference in affinity, human versus mouse MuSK [13]: ≥ 1000 fold; Kd [14]: 5.39 nM; Kd [15]: 0.07 nM
30A11 (antibody, V domains shown, human IgG1 with the LALA mutations (L234A, L235A); produced in HEK293 cells; also called 30A11 mAb) VH: QVQVQESGPGLVKPSQTLSLTCTVSGGSITARYYSWSWIRQPPGKGLEWMGVIAYDGSTYYSPSLKSRTSISRDTSKNQFSLHLSSVTPDDTAVYYCARGSSRVAAAFDSWGQGTQVTVSS VL: SYELTQSPSVTVALRQTAKITCGGDNIASKNVQWYQQKPGQAPSLVIWADSRRPSGIPVRFSGSNFGNTATLTISGAQAEDEADYYCQVWDSSTNVAVFGGGTHLTVL	100	73	89	74	79	0.11	1	
